Broadly, the Kd is the free concentration of one partner at which half of the binding sites on the other are occupied at equilibrium, for simple one-to-one binding.

B1: LTBP1^E3cbEGF15 (LTBP1 EGF3-cbEGF15) (domain or fragment)
chain: QAEECGILNGCENGRCVRVQEGYTCDCFDGYHLDTAKMTCVDVNECDELNNRMSLCKNAKCINTDGSYKCLCLPGYVPSDKPNYCT
B2: LTBP1^cbEGF14TB3 (LTBP1 cbEGF14-TB3) (domain or fragment)
chain: MDECQDPSSCIDGQCVNTEGSYNCFCTHPMVLDASEKRCIRPAESNEQIEETDVYQDLCWEHLSDEYVCSRPLVGKQTTYTECCCLYGEAWGMQCALCPLKDSDDYAQLCNIPVTGRRQPY
modifications: Ca2+-bound cbEGF14; disulfide-bonded (refolded); limits run from the start of cbEGF14 to just after the last Cys of TB3 by convention, exact construct ends not given; vector-derived N-terminal …
B3: LTBP1^TB3E3 (LTBP1 TB3-EGF3) (domain or fragment)
chain: IRPAESNEQIEETDVYQDLCWEHLSDEYVCSRPLVGKQTTYTECCCLYGEAWGMQCALCPLKDSDDYAQLCNIPVTGRRQPYGRDALVDFSEQYTPEADPYFIQDRFLNSFEELQAEECGILNGCENGRCVRVQEGYTCDCFDGYHLDTAKMTCV

T1 sequence (P35555 other isoform, or with tags, fused parts or gaps C204 replaced with a serine | C204 replaced with a serine): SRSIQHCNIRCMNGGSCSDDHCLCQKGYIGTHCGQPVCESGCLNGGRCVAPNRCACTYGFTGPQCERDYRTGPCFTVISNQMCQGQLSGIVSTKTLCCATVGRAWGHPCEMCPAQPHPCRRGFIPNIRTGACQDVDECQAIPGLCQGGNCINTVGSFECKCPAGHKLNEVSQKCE

This test concerns the target T1, FBN1^E2cbEGF1 (fibrillin-1 EGF2-EGF3-Hyb1-cbEGF1) (human, UniProt P35555 113-287, C204 replaced with a serine).
T1 construct: fibrillin-1 (FBN1), human, domains EGF2-EGF3-Hyb1-cbEGF1; His6 tag, Ser-Ala spacer and factor Xa site (Ile-Glu-Gly-Arg) at the N-terminus, tag removed with factor Xa; 15N-labelled in some NMR titrations; Construct described in Robertson et al., 2013b; also called FBN1 EGF2-EGF3-Hyb1-cbEGF1; four-domain FBN1 fragment; not shown: His6, N-terminal, cleaved
Put plainly: SPR; Biacore T100; FBN1 fragments amine-coupled to a CM5 chip (1000 RU each flow cell), LTBP1 fragments as analytes; 50 mM Tris pH 7.5, 150 mM NaCl, 0.05% Tween 20, 2 mM CaCl2; 25°C; multi-cycle and single-cycle; Kd estimated from Scatchard plots. The following applies: both partners purified.
Turning to B1, the Kd was roughly 100 µM. The value for B2 was roughly 300 µM.

Consider B3, for which the Kd is 0.5 to 1 µM.

The values above are taken from publication PMC5548924, “The N-Terminal Region of Fibrillin-1 Mediates a Bipartite Interaction with LTBP1” (Structure(London, England:1993), 2017).
